The values below come from the supplement of paper PMC9112550, “Optimization of the antimicrobial peptide Bac7 by deep mutational scanning” (BMC Biology, 2022).

The data set has as its system Escherichia coli TOP10. As to the kind of experiment: shrunken log2 fold change of peptide-encoding DNA abundance (4.5 h post-induction vs induction); higher = less antimicrobial activity (less host growth inhibition). As to conditions: time post-induction: 4.5 h; library: site-saturation at positions 5, 18, 19, 20.
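Further: peptides expressed intracellularly from a pBAD plasmid library in pooled LB shake-flask culture, induced with 0.3% L-arabinose, DNA abundance read by NGS, three biological replicates, DESeq2 with apeglm shrinkage.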

Take RRIRQRPPRLPRPRPRPWMCPRP: the “shrunken log2 fold change” value worked out at 0.00702.
The result for RRIRERPPRLPRPRPRPQNSPRP reads -0.505; that for RRIRRRPPRLPRPRPRPSEWPRP, -0.15.
Next, RRIRHRPPRLPRPRPRPRHEPRP: 0.099.
The result for RRIRSRPPRLPRPRPRPREKPRP reads 0.0145; that for RRIRWRPPRLPRPRPRPEFGPRP, 0.393; that for RRIRWRPPRLPRPRPRPTNNPRP, 0.0375.
Consider RRIRCRPPRLPRPRPRPCPIPRP, for which the “shrunken log2 fold change” value was -0.52.
Take RRIRPRPPRLPRPRPRPRWFPRP: the “shrunken log2 fold change” value worked out at 0.405.
Regarding RRIRNRPPRLPRPRPRPDWAPRP, the “shrunken log2 fold change” value was -0.0406.
Next, RRIRIRPPRLPRPRPRPTPSPRP: 0.0658.
As for RRIRYRPPRLPRPRPRPQIKPRP, the “shrunken log2 fold change” value was -0.969.
The result for RRIRCRPPRLPRPRPRPNFNPRP reads -0.372; that for RRIRTRPPRLPRPRPRPGPRPRP, 0.716.
Next, RRIRHRPPRLPRPRPRPLPVPRP: 0.125.
Next, RRIRGRPPRLPRPRPRPMCKPRP: 0.886.
On to RRIRPRPPRLPRPRPRPWPWPRP, for which the “shrunken log2 fold change” value is 0.0232.
Next, RRIRRRPPRLPRPRPRPKYSPRP: -0.124.
With RRIRARPPRLPRPRPRPWYYPRP, the “shrunken log2 fold change” value was -0.628.
Consider RRIRERPPRLPRPRPRPNDSPRP, for which the “shrunken log2 fold change” value was -0.0224.
Next, RRIRIRPPRLPRPRPRPRFFPRP: -0.123; RRIRDRPPRLPRPRPRPNYQPRP: -0.187; RRIRRRPPRLPRPRPRPCERPRP: 0.137.
The result for RRIRARPPRLPRPRPRPGRAPRP reads 0.731; that for RRIRIRPPRLPRPRPRPGWQPRP, 0.449.
Turning to RRIRKRPPRLPRPRPRPHYNPRP, the “shrunken log2 fold change” value is -0.428.
As for RRIRGRPPRLPRPRPRPRPNPRP, the “shrunken log2 fold change” value was found to be 0.64.
RRIRGRPPRLPRPRPRPRPSPRP: the “shrunken log2 fold change” value was determined as 0.49.
As for RRIRDRPPRLPRPRPRPFQIPRP, the “shrunken log2 fold change” value is 0.0155.
Next, RRIRSRPPRLPRPRPRPGPYPRP: -0.325; RRIRKRPPRLPRPRPRPMAAPRP: 0.751; RRIRLRPPRLPRPRPRPMIHPRP: -0.186.
The result for RRIRARPPRLPRPRPRPASKPRP reads 0.0747; that for RRIRQRPPRLPRPRPRPREGPRP, 0.151.
Regarding RRIRGRPPRLPRPRPRPTKFPRP, the “shrunken log2 fold change” value is 0.458.
Next, RRIRARPPRLPRPRPRPGVLPRP: 0.2; RRIRWRPPRLPRPRPRPVHPPRP: -0.23.
Next, RRIRFRPPRLPRPRPRPCDPPRP: -0.0886; RRIRPRPPRLPRPRPRPRMHPRP: 0.115.
With RRIRTRPPRLPRPRPRPDNSPRP, the “shrunken log2 fold change” value is -0.0647.
The result for RRIRERPPRLPRPRPRPCYHPRP reads -0.744; that for RRIRHRPPRLPRPRPRPSSLPRP, -0.153.
The result for RRIRWRPPRLPRPRPRPRIYPRP reads 0.068.
For the sequence RRIRQRPPRLPRPRPRPAACPRP, the “shrunken log2 fold change” value worked out at 0.183.
The result for RRIRQRPPRLPRPRPRPVHEPRP reads 0.536; that for RRIRYRPPRLPRPRPRPAAWPRP, 0.00758; that for RRIRMRPPRLPRPRPRPATHPRP, -0.0207.
The result for RRIRFRPPRLPRPRPRPQSSPRP reads 0.0748.
With RRIRYRPPRLPRPRPRPCHQPRP, the “shrunken log2 fold change” value was -0.00822.
Next, RRIRSRPPRLPRPRPRPEFMPRP: 0.135.
Next, RRIRWRPPRLPRPRPRPLEAPRP: 0.668; RRIRYRPPRLPRPRPRPHPFPRP: -1.3.
The result for RRIRGRPPRLPRPRPRPLKYPRP reads 0.145; that for RRIRMRPPRLPRPRPRPWRQPRP, 0.331; that for RRIRKRPPRLPRPRPRPWCPPRP, 0.0532.
Take RRIRCRPPRLPRPRPRPWQFPRP: the “shrunken log2 fold change” value was -0.0402.
On to RRIRVRPPRLPRPRPRPTVIPRP, for which the “shrunken log2 fold change” value is -0.127.
The result for RRIRRRPPRLPRPRPRPLRFPRP reads 0.836.
As for RRIRFRPPRLPRPRPRPGWYPRP, the “shrunken log2 fold change” value was -0.463.
Turning to RRIRGRPPRLPRPRPRPDDSPRP, the “shrunken log2 fold change” value worked out at 0.121.
Next, RRIRSRPPRLPRPRPRPWNDPRP: -0.303; RRIRDRPPRLPRPRPRPDPFPRP: -0.00228; RRIRNRPPRLPRPRPRPYRYPRP: 0.0342.
Next, RRIRARPPRLPRPRPRPTCFPRP: 0.57; RRIRERPPRLPRPRPRPSYYPRP: -0.126.
Next, RRIRNRPPRLPRPRPRPIYGPRP: -0.224.
On to RRIRGRPPRLPRPRPRPGRKPRP, for which the “shrunken log2 fold change” value worked out at 0.747.
The result for RRIRDRPPRLPRPRPRPDTVPRP reads -0.0743; that for RRIRVRPPRLPRPRPRPDTTPRP, -1.05.
On to RRIRQRPPRLPRPRPRPFNDPRP, for which the “shrunken log2 fold change” value stood at 0.0753.
For the sequence RRIRDRPPRLPRPRPRPHVFPRP, the “shrunken log2 fold change” value was -0.0358.
With RRIRYRPPRLPRPRPRPTEYPRP, the “shrunken log2 fold change” value is -0.204.
As for RRIRIRPPRLPRPRPRPYWWPRP, the “shrunken log2 fold change” value is -0.259.
Next, RRIRNRPPRLPRPRPRPKHMPRP: -0.382; RRIRIRPPRLPRPRPRPKPPPRP: 0.269; RRIRNRPPRLPRPRPRPAHYPRP: -0.299.
Next, RRIRTRPPRLPRPRPRPKDWPRP: 0.358; RRIRKRPPRLPRPRPRPQKFPRP: 0.0144.
The result for RRIRGRPPRLPRPRPRPFKGPRP reads -0.00192.
Regarding RRIRQRPPRLPRPRPRPVQPPRP, the “shrunken log2 fold change” value came out at 0.0898.
Regarding RRIRERPPRLPRPRPRPPAAPRP, the “shrunken log2 fold change” value was 0.252.
On to RRIRIRPPRLPRPRPRPEFPPRP, for which the “shrunken log2 fold change” value was -0.0115.
For the sequence RRIRFRPPRLPRPRPRPPQAPRP, the “shrunken log2 fold change” value turned out to be 0.558.
Next, RRIRARPPRLPRPRPRPIHMPRP: 0.0203; RRIRERPPRLPRPRPRPPVDPRP: 0.125.
Take RRIRKRPPRLPRPRPRPGQIPRP: the “shrunken log2 fold change” value amounted to 0.00502.
The result for RRIRGRPPRLPRPRPRPYYGPRP reads -0.289; that for RRIRLRPPRLPRPRPRPCQEPRP, -0.0108; that for RRIRQRPPRLPRPRPRPGQSPRP, -0.0203.
RRIRPRPPRLPRPRPRPFSDPRP: the “shrunken log2 fold change” value is -0.0761.
As to RRIRNRPPRLPRPRPRPCRCPRP, the “shrunken log2 fold change” value is -0.307.
The result for RRIRVRPPRLPRPRPRPNSGPRP reads -0.496; that for RRIRSRPPRLPRPRPRPTFHPRP, -0.192.
With RRIRCRPPRLPRPRPRPKTKPRP, the “shrunken log2 fold change” value came out at 0.177.
RRIRQRPPRLPRPRPRPEYLPRP: the “shrunken log2 fold change” value was -0.00804.
Regarding RRIRARPPRLPRPRPRPLTCPRP, the “shrunken log2 fold change” value is -0.248.
The result for RRIRSRPPRLPRPRPRPRQCPRP reads 0.159; that for RRIRHRPPRLPRPRPRPCCEPRP, -0.366; that for RRIRQRPPRLPRPRPRPRKYPRP, -0.2.
Take RRIRGRPPRLPRPRPRPGQTPRP: the “shrunken log2 fold change” value worked out at 0.405.
The result for RRIRDRPPRLPRPRPRPGFRPRP reads 0.248.
RRIRQRPPRLPRPRPRPGKVPRP: the “shrunken log2 fold change” value was -0.0155.
Regarding RRIRKRPPRLPRPRPRPECEPRP, the “shrunken log2 fold change” value is 0.0869.
Next, RRIRERPPRLPRPRPRPMREPRP: 0.992.
Regarding RRIRMRPPRLPRPRPRPPIGPRP, the “shrunken log2 fold change” value came out at 0.161.
Next, RRIRCRPPRLPRPRPRPLLLPRP: -0.265; RRIRHRPPRLPRPRPRPPWLPRP: 0.242.
Next, RRIRDRPPRLPRPRPRPHRWPRP: 0.00819; RRIRARPPRLPRPRPRPQENPRP: 0.394; RRIRQRPPRLPRPRPRPKTLPRP: -0.156.
As to RRIRWRPPRLPRPRPRPQVMPRP, the “shrunken log2 fold change” value stood at 0.209.
RRIRNRPPRLPRPRPRPPLCPRP: the “shrunken log2 fold change” value was 0.167.
As for RRIRTRPPRLPRPRPRPTFNPRP, the “shrunken log2 fold change” value was -0.199.
As for RRIRQRPPRLPRPRPRPYGVPRP, the “shrunken log2 fold change” value is -0.0132.
Next, RRIRTRPPRLPRPRPRPHENPRP: 0.00752.
For the sequence RRIRWRPPRLPRPRPRPNIGPRP, the “shrunken log2 fold change” value stood at 0.138.
Next, RRIRSRPPRLPRPRPRPAREPRP: 0.0982; RRIRGRPPRLPRPRPRPGIPPRP: 0.351; RRIRTRPPRLPRPRPRPKECPRP: -0.503.
In the case of RRIRYRPPRLPRPRPRPNGFPRP, the “shrunken log2 fold change” value is -0.219.
Next, RRIRGRPPRLPRPRPRPDGTPRP: 1.02.
As to RRIRYRPPRLPRPRPRPSREPRP, the “shrunken log2 fold change” value is -0.0635.
The result for RRIRIRPPRLPRPRPRPRHHPRP reads -0.408; that for RRIRMRPPRLPRPRPRPEFLPRP, 0.113; that for RRIRCRPPRLPRPRPRPQWRPRP, 0.274.
